# B1: 15-nt poly(T) without MH (unlabeled) (dsDNA)
# DNA 1: CCAACCGACCACACCCACCACCCTACCGCCTTTTTTTTTTTTTTT
# DNA 2: GGCGGTAGGGTGGTGGGTGTGGTCGGTTGG
# B2: FAM-9T + MH (dsDNA)
# DNA 1: CCAACCGACCACACCCACCACCCTACCGCCTTTTTTTTTCCCGGG
# DNA 2: B1 DNA 2
# B3: 9-nt poly(T) with MH (unlabeled) (dsDNA)
# DNA 1: B2 DNA 1
# DNA 2: B1 DNA 2
# B4: FAM-11T + MH (dsDNA)
# DNA 1: CCAACCGACCACACCCACCACCCTACCGCCTTTTTTTTTTTCCCGGG
# DNA 2: B1 DNA 2
# B5: 11-nt poly(T) with MH (unlabeled) (dsDNA)
# DNA 1: B4 DNA 1
# DNA 2: B1 DNA 2
# B6: FAM-15T no MH (dsDNA)
# DNA 1: CCAACCGACCACACCCACCACCCTACCGCCTTTTTTTTTTTTTTTTT
# DNA 2: B1 DNA 2
# Legend:
# [1] = molecular target: T1, Polθ-hel WT (DNA polymerase theta helicase domain) (human, UniProt O75417 1-894); assay: EMSA
# T1 sequence (O75417 1-894): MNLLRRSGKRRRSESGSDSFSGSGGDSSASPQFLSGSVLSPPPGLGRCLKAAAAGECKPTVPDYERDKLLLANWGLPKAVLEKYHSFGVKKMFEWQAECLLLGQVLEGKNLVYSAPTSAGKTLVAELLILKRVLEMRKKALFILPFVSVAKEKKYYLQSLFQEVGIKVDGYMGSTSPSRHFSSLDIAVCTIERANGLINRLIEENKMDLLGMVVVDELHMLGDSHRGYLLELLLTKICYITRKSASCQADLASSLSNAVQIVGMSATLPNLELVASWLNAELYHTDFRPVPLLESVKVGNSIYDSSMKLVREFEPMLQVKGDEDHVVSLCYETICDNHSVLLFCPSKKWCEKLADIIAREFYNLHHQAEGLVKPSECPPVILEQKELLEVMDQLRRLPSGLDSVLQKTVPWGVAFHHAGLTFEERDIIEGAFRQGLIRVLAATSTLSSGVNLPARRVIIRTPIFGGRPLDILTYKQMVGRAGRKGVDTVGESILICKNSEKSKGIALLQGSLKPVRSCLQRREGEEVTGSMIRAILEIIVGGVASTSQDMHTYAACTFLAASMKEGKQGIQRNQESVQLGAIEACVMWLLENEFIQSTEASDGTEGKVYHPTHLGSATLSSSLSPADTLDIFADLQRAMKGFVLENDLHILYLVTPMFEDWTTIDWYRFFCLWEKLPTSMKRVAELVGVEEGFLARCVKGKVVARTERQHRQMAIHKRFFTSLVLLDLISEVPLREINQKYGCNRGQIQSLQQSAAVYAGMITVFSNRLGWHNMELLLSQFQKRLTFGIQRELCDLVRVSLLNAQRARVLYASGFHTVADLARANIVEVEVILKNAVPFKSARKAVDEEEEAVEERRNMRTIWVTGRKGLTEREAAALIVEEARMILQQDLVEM
# [2] = molecular target: T1, Polθ-hel WT (DNA polymerase theta …); assay: fluorescence anisotropy
# [3] = molecular target: T1, Polθ-hel WT (DNA polymerase theta …); assay: cryo-EM structure
Binder,binding result [1],binding result [2],other results
B1,binds,–,–
B2,–,binds,–
B3,binds,–,–
B4,–,binds,–
B5,–,–,binding result [3]: binds
B6,–,binds,–

# Source: paper PMC12009414
